The source of these data is patent US12723078 (University of Texas, dated 2026).

Assay [1] addresses T1, LILRA1 (human, UniProt O75019).
T1 construct: not the cell-surface form of MOLECULES; also called LILRA1 protein of the ELISA and Octet specificity tests
The assay is described as follows: Octet RED96, cross-reactivity table. For orientation: Biolayer interferometry detects binding as a change in optical thickness at a sensor tip.

Assay [2] deals with T2, recombinant LILRB1 (human, UniProt Q8NHL6 24-461).
T2 construct: LILRB1-Fc proteins were also made; also called LILRB1 recombinant proteins
Nature of the assay: ELISA, coated recombinant LILRB1, antibody titration.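 Note: serially diluted anti-LILRB1 antibodies incubated 60 min at 37 °C on plates coated with 50 ng/well recombinant protein, TMB colorimetric development read as absorbance at 450 nm.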 In general terms: ELISA stands for enzyme-linked immunosorbent assay.
Procedure: (§1) ELISA. LILRB1 recombinant proteins (50 ng/well, 100 μL per well) were coated on Corning 96-well ELISA plates at 37° C. for 4 hrs. Plates were blocked for 2 hrs at 37° C. with 5% non-fat milk. After washing with PBST, 100 μL of serial diluted anti-LILRB1 antibodies were added and incubated for 60 min at 37° C. […] Plates were washed again with PBST for another 5 times, then the immunoreactions were developed with TMB substrates (Sigma, Cat #T0440) and stopped by the addition of 2 M H_2SO_4 before the plate was read at 450 nm.

For assay [3], the target named is T3, recombinant human LILRB1 protein (human, UniProt Q8NHL6 24-461).
T3 construct: ELISA and Octet methods say only 'recombinant LILRB1'; also called recombinant LILRB1; LILRB1 recombinant proteins
Nature of the assay: Octet RED96, LILRB1 at 100, 33.3, 11.1 and 3.7 nM.
Procedure: Following a short baseline in kinetics buffer for 20 s, the loaded biosensors were exposed to solutions of recombinant LILRB1 in a range of concentrations (0-500 nM). After background was subtracted, data was fit to a 1:1 binding model to extract an association rate ($kon$) and dissociation rate ($koff$). The KD was calculated using the ratio $koff/kon$. […] All experiments were performed with shaking at 1,000 rpm. All raw data was processed using ForteBio Octet Data Analysis Software 9.0.

In assay [4] the target is T3, recombinant human LILRB1 protein. Nature of the assay: ELISA.
Procedure: as §1
Assay [5] has the same target. The assay is described as follows: ELISA. This is another data set of the same source.
Procedure: as §1

T3 sequence (Q8NHL6 24-461 limits assumed): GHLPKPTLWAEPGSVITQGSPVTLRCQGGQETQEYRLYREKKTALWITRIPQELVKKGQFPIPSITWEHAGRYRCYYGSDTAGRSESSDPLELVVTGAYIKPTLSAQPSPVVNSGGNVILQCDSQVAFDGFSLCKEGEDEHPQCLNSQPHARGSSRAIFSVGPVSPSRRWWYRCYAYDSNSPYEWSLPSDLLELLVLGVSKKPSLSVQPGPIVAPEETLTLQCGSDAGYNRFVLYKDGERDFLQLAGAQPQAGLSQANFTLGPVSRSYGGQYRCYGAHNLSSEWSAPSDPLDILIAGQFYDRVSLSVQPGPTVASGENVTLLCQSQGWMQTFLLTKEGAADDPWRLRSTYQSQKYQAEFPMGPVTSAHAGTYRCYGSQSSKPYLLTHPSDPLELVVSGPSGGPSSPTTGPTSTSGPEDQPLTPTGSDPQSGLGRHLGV
T2 sequence (Q8NHL6 24-461 limits assumed): as above
T1 sequence (O75019 17-461 limits assumed): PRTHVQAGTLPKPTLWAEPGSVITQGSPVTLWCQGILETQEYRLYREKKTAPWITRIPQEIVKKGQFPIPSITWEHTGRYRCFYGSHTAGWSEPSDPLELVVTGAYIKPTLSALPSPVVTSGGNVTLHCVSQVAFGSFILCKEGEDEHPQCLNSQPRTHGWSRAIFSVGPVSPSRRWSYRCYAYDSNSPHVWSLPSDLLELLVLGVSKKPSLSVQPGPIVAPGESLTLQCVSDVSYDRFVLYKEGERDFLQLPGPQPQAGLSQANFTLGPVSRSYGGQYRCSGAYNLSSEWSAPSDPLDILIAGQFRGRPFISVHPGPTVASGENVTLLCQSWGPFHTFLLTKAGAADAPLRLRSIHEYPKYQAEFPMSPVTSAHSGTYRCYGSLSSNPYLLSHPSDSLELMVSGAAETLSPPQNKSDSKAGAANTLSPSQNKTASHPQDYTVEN

B1: B1-#190 (antibody, V domains shown)
VH: QEQLKESGGDLVKPEGSLTLTCTASGFSFSSDYWVCWVRQAPGKGPEWIGCIYTGDDDTYYASWAKGRFTISKTSSTTVTLEVTSLTAADTATYFCARGLTIGTAELYFWGPGTVVTVSS
VL: ELVLTQTPSPVSAAVGGTVTINCQASQSISNELSWYQQKPGQPPKLLIYLASTLDSGVPSRFKGSGSGTQFTLTISDLECADAATYYCQSHYYGGSSDYGWAFGGGTEVVVK
notes: recombinant rabbit IgG
On to B1, for which the binding result in assay [1] is recorded as “binds”. Moreover, in assay [2], the EC50 was found to be 6.78 ng/mL.

B2: B1-176-N297A (antibody, V domains shown)
VH: QSLEESEGGLVKPGGTLTLTCTASGFSFSSSYCMCWVRQAPGKGLELIACIYTDSSGATYYASWAKGRFTISKSSSTTITLQMTSLTAADTATYFCARGWDYEDPGYTDTTYFSLWGPGTLVTVSS
VL: ELDLTQTPSSVEAAVGGTVTIKCQASQTIYTNLAWYQQKPGQPPNLLIYAASTLASGVSSRFKGSGSGTEFTLTISDLECADAATYYCQSYYGSSTTGNGFGGGTEVEIK
In the case of B2, in assay [3], the dissociation constant (Kd) stood at 0.17 nM.

B3: humanized B1-176 with heavy chain Hu-176 VH-1 and light chain Hu-176 VL (antibody, V domains shown)
VH: EVQLVESGGGLVQPGGSLRLSCAASGFSFSSSYCMCWVRQAPGKGLEWVSCIYTDSSGATYYASWAKGRFTISRHNSKNTLYLQMNSLRAEDTAVYYCARGWDYEDPGYTDTTYFSLWGRGTLVTVSS
VL: DIQLTQSPSFLSASVGDRVTITCQASQTIYTNLAWYQQKPGKAPKLLIYAASTLASGVPSRFSGSGSGTEFTLTISSLQPEDFATYYCQSYYGSSTTGNGFGGGTKVEIK
On to B3, for which the binding result in assay [4] is given as “binds”.

B4: Hu B1-176-N297A (antibody, V domains shown)
VH: EVQLVESGGGLVQPGGSLRLSCAASGFSFSSSYCMCWVRQAPGKGLELVSCIYTDSSGATYYASWAKGRFTISRHNSKNTLYLQMNSLRAEDTAVYYCARGWDYEDPGYTDTTYFSLWGRGTLVTVSS
VL: DIQLTQSPSFLSASVGDRVTITCQASQTIYTNLAWYQQKPGKAPKLLIYAASTLASGVPSRFSGSGSGTEFTLTISSLQPEDFATYYCQSYYGSSTTGNGFGGGTKVEIK
notes: Human IgG1 with N297A
Turning to B4, the Kd in assay [3] was found to be 0.351 nM.

B5: Hu B1-176-LALAPG (antibody, V domains shown)
VH: EVQLVESGGGLVQPGGSLRLSCAASGFSFSSSYCMCWVRQAPGKGLELVSCIYTDSSGATYYASWAKGRFTISRHNSKNTLYLQMNSLRAEDTAVYYCARGWDYEDPGYTDTTYFSLWGRGTLVTVSS
VL: DIQLTQSPSFLSASVGDRVTITCQASQTIYTNLAWYQQKPGKAPKLLIYAASTLASGVPSRFSGSGSGTEFTLTISSLQPEDFATYYCQSYYGSSTTGNGFGGGTKVEIK
notes: Human IgG1 with L234A, L235A and P329G
For B5, the 50% effective concentration (EC50 (read off the curve)) in assay [5] is around 40 ng/mL.

B6: B1-#5 (antibody, V domains shown)
VH: EQSLEESGGDLVKPEGSLTLTCTASELSFSSAYYMCWVRQAPGKGLEWIGCIYSGDGDTYYANWAKGRFTISKTSSTTVTLQMTSLTDADTATYFCARALDSHYSSFDLWGPGTLVTISS
VL: ELDMTQTPSSVSAAVGDTVTIKCQASQSIYRYLAWYQQKPGQRPSLLIYYGSDLASGVPSRFSGSGSGTEFTLTISDLECADAASYYCQTTYDDYHNGWAFGGGTNVEIN
notes: recombinant rabbit IgG
For the molecule B6, in assay [1], the binding result is reported as “binds”. In assay [2], the 50% effective concentration (EC50) was 6.02 ng/mL.

A word on the EC50: it is the concentration that produces a half-maximal response. A word on the Kd: it is the equilibrium constant for the complex coming apart. As a reminder, the EC50 (read off the curve) is the midpoint of the concentration-response curve.
